According to US10772928B2, “Modulation and detection of a neuronal alternative splicing regulatory network for treatment and diagnosis of neurological disorders” (The Governing Council of the University of Toronto, priority 2014, dated 2020):

T1: nSR100 (Mus musculus, UniProt Q8BKA3)
T1 construct: host or cells: mouse N2A cells
T1 sequence (Q8BKA3 1-608): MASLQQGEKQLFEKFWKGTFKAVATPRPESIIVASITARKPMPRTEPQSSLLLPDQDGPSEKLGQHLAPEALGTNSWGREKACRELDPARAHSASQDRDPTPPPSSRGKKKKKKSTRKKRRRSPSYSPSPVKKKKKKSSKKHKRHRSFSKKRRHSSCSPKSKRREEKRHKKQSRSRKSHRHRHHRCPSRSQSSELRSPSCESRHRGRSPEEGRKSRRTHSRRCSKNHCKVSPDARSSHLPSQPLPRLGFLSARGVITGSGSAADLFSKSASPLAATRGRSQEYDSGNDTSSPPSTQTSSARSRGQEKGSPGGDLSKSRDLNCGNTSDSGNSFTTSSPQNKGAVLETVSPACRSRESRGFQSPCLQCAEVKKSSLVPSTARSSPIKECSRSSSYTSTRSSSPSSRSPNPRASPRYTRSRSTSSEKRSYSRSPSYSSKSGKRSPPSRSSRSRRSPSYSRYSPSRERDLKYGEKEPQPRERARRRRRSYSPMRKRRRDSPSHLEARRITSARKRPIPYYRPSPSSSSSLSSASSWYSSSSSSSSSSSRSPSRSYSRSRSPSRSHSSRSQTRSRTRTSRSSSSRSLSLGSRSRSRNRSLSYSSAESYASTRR

B1: Csnk2a1 (protein, UniProt Q60737 1-391, looked up)
Casein kinase II subunit alpha: MSGPVPSRARVYTDVNTHRPREYWDYESHVVEWGNQDDYQLVRKLGRGKYSEVFEAINITNNEKVVVKILKPVKKKKIKREIKILENLRGGPNIITLADIVKDPVSRTPALVFEHVNNTDFKQLYQTLTDYDIRFYMYEILKALDYCHSMGIMHRDVKPHNVMIDHEHRKLRLIDWGLAEFYHPGQEYNVRVASRYFKGPELLVDYQMYDYSLDMWSLGCMLASMIFRKEPFFHGHDNYDQLVRIAKVLGTEDLYDYIDKYNIELDPRFNDILGRHSRKRWERFVHSENQHLVSPEALDFLDKLLRYDHQSRLTAREAMEHPYFYTVVKDQARMSSTSMAGGSTPVSSANMMSGISSVPTPSPLGPLAGSPVIAAANSLGIPVPAAAGAQQ
B2: Csnk1d (protein, UniProt Q9DC28 1-415, looked up)
Casein kinase I isoform delta: MELRVGNRYRLGRKIGSGSFGDIYLGTDIAAGEEVAIKLECVKTKHPQLHIESKIYKMMQGGVGIPTIRWCGAEGDYNVMVMELLGPSLEDLFNFCSRKFSLKTVLLLADQMISRIEYIHSKNFIHRDVKPDNFLMGLGKKGNLVYIIDFGLAKKYRDARTHQHIPYRENKNLTGTARYASINTHLGIEQSRRDDLESLGYVLMYFNLGSLPWQGLKAATKRQKYERISEKKMSTPIEVLCKGYPSEFATYLNFCRSLRFDDKPDYSYLRQLFRNLFHRQGFSYDYVFDWNMLKFGASRAADDAERERRDREERLRHSRNPATRGLPSTASGRLRGTQEVAPPTPLTPTSHTANTSPRPVSGMERERKVSMRLHRGAPVNVSSSDLTGRQDTSRMSTSQIPGRVASSGLQSVVHR
B3: Luc7l2 (protein, UniProt Q7TNC4 1-392, looked up)
Putative RNA-binding protein …: MSAQAQMRAMLDQLMGTSRDGDTTRQRIKFSDDRVCKSHLLNCCPHDVLSGTRMDLGECLKVHDLALRADYEIASKEQDFFFELDAMDHLQSFIADCDRRTEVSKKRLAETQEEISAEVAAKAERVHELNEEIGKLLAKVEQLGAEGNVEESQKVMDEVEKARAKKREAEEVYRNSMPASSFQQQKLRVCEVCSAYLGLHDNDRRLADHFGGKLHLGFIEIREKLEELKRVVAEKQEKRNQERLKRREEREREEREKLRRSRSHSKNPKRSRSREHRRHRSRSMSRERKRRTRSKSREKRHRHRSRSSSRSRSRSHQRSRHSSRDRSRERSKRRSSKERFRDQDLASRDRDRSSRDRSPRDRDRKDKKRSYESANGRSEDRRSSEEREAGEI
B4: Ccnb1 (protein, UniProt P24860 1-430, looked up)
G2/mitotic-specific cyclin-B1: MALRVTRNTKINAENKAKVSMAGAKRVPVTVTAASKPGLRPRTALGDIGNKVSEELQARVPLKREAKTLGTGKGTVKALPKPVEKVPVCEPEVELAEPEPEPELEHVREEKLSPEPILVDNPSPSPMETSGCAPAEEYLCQAFSDVILAVSDVDADDGADPNLCSEYVKDIYAYLRQLEEEQSVRPKYLQGREVTGNMRAILIDWLIQVQMKFRLLQETMYMTVSIIDRFMQNSCVPKKMLQLVGVTAMFIASKYEEMYPPEIGDFAFVTNNTYTKHQIRQMEMKILRVLNFSLGRPLPLHFLRRASKVGEVDVEQHTLAKYLMELSMLDYDMVHFAPSQIAAGAFCLALKILDNGEWTPTLQHYLSYSEDSLLPVMQHLAKNVVMVNCGLTKHMTVKNKYAASKHAKISTLAQLNCTLVQNLSKAVTKA
B5: Ywhaq (protein, UniProt P68254 1-245, looked up)
14-3-3 protein theta: MEKTELIQKAKLAEQAERYDDMATCMKAVTEQGAELSNEERNLLSVAYKNVVGGRRSAWRVISSIEQKTDTSDKKLQLIKDYREKVESELRSICTTVLELLDKYLIANATNPESKVFYLKMKGDYFRYLAEVACGDDRKQTIENSQGAYQEAFDISKKEMQPTHPIRLGLALNFSVFYYEILNNPELACTLAKTAFDEAIAELDTLNEDSYKDSTLIMQLLRDNLTLWTSDSAGEECDAAEGAEN
B6: U2af1 (protein, UniProt Q9D883 2-239, looked up)
Splicing factor U2AF 35 kDa …: AEYLASIFGTEKDKVNCSFYFKIGACRHGDRCSRLHNKPTFSQTIALLNIYRNPQNSSQSADGLRCAVSDVEMQEHYDEFFEEVFTEMEEKYGEVEEMNVCDNLGDHLVGNVYVKFRREEDAEKAVIDLNNRWFNGQPIHAELSPVTDFREACCRQYEMGECTRGGFCNFMHLKPISRELRRELYGRRRKKHRSRSRSRERRSRSRDRGRGGGGGGGGGGGRERDRRRSRDRERSGRF
B7: Puf60 (protein, UniProt Q3UEB3 1-564, looked up)
Poly(U)-binding-splicing …: MATATIALQVNGQQGGGSEPAAAAAAAAAAVVAAGDKWKPPQGTESIKMENGQSTGTKLGLPPLTPEQQEALQKAKKYAMEQSIKSVLVKQTIAHQQQQLTNLQMAAVTMGFGDPLSPLQSMAAQRQRALAIMCRVYVGSIYYELGEDTIRQAFAPFGPIKSIDMSWDSVTMKHKGFAFVEYEVPEAAQLALEQMNSVMLGGRNIKVGRPSNIGQAQPIIDQLAEEARAFNRIYVASVHQDLSDDDIKSVFEAFGKIKSCTLARDPTTGKHKGYGFIEYEKAQSSQDAVSSMNLFDLGGQYLRVGKAVTPPMPLLTPATPGGLPPAAAVAAAAATAKITAQEAVAGAAVLGTLATPGLVSPALTLAQPLGALPQAVMAAQAPGVITGVTPARPPIPVTIPSVGVVNPILASPPTLGLLEPKKEKEEEELFPESERPEMLSEQEHMSISGSSARHMVMQKLLRKQESTVMVLRNMVDPKDIDDDLEGEVTEECGKFGAVNRVIIYQEKQGEEEDAEIIVKIFVEFSMASETHKAIQALNGRWFGGRKVVAEVYDQERFDNSDLSA

biological target: T1, nSR100; assay: AP-MS nSR100 interaction partners from mouse N2A cells (Table 5); format: binding; conditions: bait Srrm4
Text: By applying affinity purification coupled to mass-spectrometry (AP-MS), several interaction nSR100 partner proteins were detected that provide insight into mechanisms of post-translational regulation of nSR100 levels.

Row | Molecule | AvgP (average of the SAINT scores) | MaxP (maximal SAINT score)
1 | B1 | 1 | 1
2 | B2 | 1 | 1
3 | B3 | 1 | 1
4 | B4 | 1 | 1
5 | B5 | 1 | 1
6 | B6 | 1 | 1
7 | B7 | 1 | 1

same assay, conditions: bait Srrm4, 0.1 added to prevent division by 0

Row | Molecule | FoldChange between the prey Avg spectra of the bait and control purifications
8 | B1 | 4.95
9 | B2 | 55
10 | B3 | 4.33
11 | B4 | 300
12 | B5 | 180
13 | B6 | 4.6
14 | B7 | 5.07

same assay, conditions: bait Srrm4, 2 replicates

Row | Molecule | AvgSpec (average number of spectra per replicate)
15 | B1 | 49.5
16 | B2 | 5.5
17 | B3 | 39
18 | B4 | 30
19 | B5 | 18
20 | B6 | 23
21 | B7 | 73.5

same assay, conditions: bait Srrm4, biological replicate 1 (first number of the cell), AP-MS

Row | Molecule | Spectra (number of spectra for the prey in the purification of the bait)
22 | B1 | 44
23 | B2 | 7
24 | B3 | 35
25 | B4 | 27
26 | B5 | 15
27 | B6 | 22
28 | B7 | 55

same assay, conditions: bait Srrm4, biological replicate 2 (second number of the cell), AP-MS

Row | Molecule | Spectra (number of spectra for the prey in the purification of the bait)
29 | B1 | 55
30 | B2 | 4
31 | B3 | 43
32 | B4 | 33
33 | B5 | 21
34 | B6 | 24
35 | B7 | 92

same assay, conditions: bait Srrm4, sum of spectra over 2 replicates

Row | Molecule | SpecSum
36 | B1 | 99
37 | B2 | 11
38 | B3 | 78
39 | B4 | 60
40 | B5 | 36
41 | B6 | 46
42 | B7 | 147
